The numbers were not newly measured in article PMC3415683, which cites them from elsewhere.

This series addresses Dll-1 DSL-EGF3 (Homo sapiens) (UniProt O00548). In words: SPR. In general terms: SPR reads the build-up and loss of mass on a sensor chip optically.
Sequence of UniProt O00548 (O00548 177-325): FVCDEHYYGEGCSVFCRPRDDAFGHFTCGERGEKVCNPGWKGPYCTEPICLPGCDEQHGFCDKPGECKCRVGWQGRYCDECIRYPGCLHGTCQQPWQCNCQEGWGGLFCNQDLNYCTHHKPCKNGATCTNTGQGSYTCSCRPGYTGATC

Turning to Notch1 EGF11-14 (from UniProt P46531), the Kd was 130 µM.

For orientation: Kd means a measure of binding affinity in units of concentration.
